Reference: paper PMC4431670 (Structure(London, England:1993), 2015)

Experiments:
[1] = biological target: T1, C-terminal domain of Not1 (Not1C), residues 1541-2093 (S. cerevisiae, UniProt P25655 1541-2093); test: pull-down
T1 sequence (looked up): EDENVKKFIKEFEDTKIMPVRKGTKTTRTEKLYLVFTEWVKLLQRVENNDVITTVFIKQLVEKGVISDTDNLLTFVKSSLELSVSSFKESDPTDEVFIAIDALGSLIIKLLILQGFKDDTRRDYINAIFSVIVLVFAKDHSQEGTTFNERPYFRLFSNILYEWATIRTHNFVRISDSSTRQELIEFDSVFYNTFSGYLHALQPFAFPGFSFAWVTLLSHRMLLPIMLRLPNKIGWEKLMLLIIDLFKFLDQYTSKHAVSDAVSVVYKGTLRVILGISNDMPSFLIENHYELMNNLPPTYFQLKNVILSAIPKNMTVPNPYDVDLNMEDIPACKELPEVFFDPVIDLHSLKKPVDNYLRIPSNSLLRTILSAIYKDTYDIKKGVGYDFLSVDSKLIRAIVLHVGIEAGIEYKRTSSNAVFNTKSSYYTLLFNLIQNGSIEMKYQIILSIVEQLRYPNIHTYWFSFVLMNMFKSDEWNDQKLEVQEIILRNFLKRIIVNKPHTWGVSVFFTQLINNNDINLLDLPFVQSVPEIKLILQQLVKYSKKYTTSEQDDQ

[2] = biological target: T1, C-terminal domain of Not1 (Not1C), …; test: crystal structure

B1: GST-tagged Not4C (domain or fragment, S. cerevisiae, UniProt P34909 418-477, looked up)
chain: DPYDALGNAVDFLDARLHSLSNYQKRPISIKSNIIDEETYKKYPSLFSWDKIEASKKSDN
[1]
  binding result: binds

B2: Not4C, residues 418-477 of Not4 (domain or fragment, S. cerevisiae, UniProt P34909 418-477, looked up)
chain: DPYDALGNAVDFLDARLHSLSNYQKRPISIKSNIIDEETYKKYPSLFSWDKIEASKKSDN
[2]
  binding result: binds
